A short description of the series: total protein half-life in vivo (active degradation + dilution); higher = more stable protein.
[1] abbreviates: E. coli NCM3722 delta-clpP delta-lon delta-hslV, growth: N-lim chemostat, doubling time 6 h.
Setting [2] is: E. coli NCM3722 delta-clpP, growth: N-lim chemostat, doubling time 6 h.
[3] abbreviates: E. coli NCM3722 delta-hslV, growth: N-lim chemostat, doubling time 6 h.
The mark [4] stands for this setting: E. coli NCM3722 delta-lon, growth: N-lim chemostat, doubling time 6 h.
Where [5] appears, read: E. coli NCM3722 delta-smpB, growth: N-lim chemostat, doubling time 6 h.
Where [6] appears, read: wild type E. coli NCM3722, growth: C-lim chemostat, doubling time 3 h.
Setting [7] is: wild type E. coli NCM3722, growth: C-lim chemostat, doubling time 6 h.
The mark [8] stands for this setting: wild type E. coli NCM3722, growth: C-lim chemostat, doubling time 12 h.
Setting [9] is: wild type E. coli NCM3722, growth: N-lim chemostat, doubling time 6 h.
[10] abbreviates: wild type E. coli NCM3722, growth: N-lim chemostat, doubling time 12 h.
[11] abbreviates: wild type E. coli NCM3722, growth: P-lim chemostat, doubling time 6 h.
The mark [12] stands for this setting: wild type E. coli NCM3722, growth: P-lim chemostat, doubling time 12 h.

± gives the standard deviation of the averaged measurements.

With “MAELLLGVNIDHIATLRNARGTAYPDPVQAAFIAEQAGADGITVHLREDRRHITDRDVRILRQTLDTRMNLEMAVTEEMLAIAVETKPHFCCLVPEKRQEVTTEGGLDVAGQRDKMRDACKRLADAGIQVSLFIDADEEQIKAAAEVGAPFIEIHTGCYADAKTDAEQAQELARIAKAATFAASLGLKVNAGHGLTYHNVKAIAAIPEMHELNIGHAIIGRAVMTGLKDAVAEMKRLMLEARG [P0A794]”, the “total protein half-life in vivo” value is 5.813 ± 0.038 h under setting [1]; 5.468 ± 0.049 h under setting [2]; 5.95 ± 0.48 h under setting [3]; 5.61 ± 0.29 h under setting [4]; 5.4 ± 0.14 h under setting [5]; 3.17 ± 0.12 h under setting [6]. Also, the “total protein half-life in vivo” value reads like this: under setting [7], 5.5 ± 0.1 h; under setting [8], 11.7 ± 0.53 h; under setting [9], 5.9 ± 0.39 h; under setting [10], 9.84 ± 0.17 h; under setting [11], 6.06 ± 0.43 h.
On to “MKQKVVSIGDINVANDLPFVLFGGMNVLESRDLAMRICEHYVTVTQKLGIPYVFKASFDKANRSSIHSYRGPGLEEGMKIFQELKQTFGVKIITDVHEPSQAQPVADVVDVIQLPAFLARQTDLVEAMAKTGAVINVKKPQFVSPGQMGNIVDKFKEGGNEKVILCDRGANFGYDNLVVDMLGFSIMKKVSGNSPVIFDVTHALQCRDPFGAASGGRRAQVAELARAGMAVGLAGLFIEAHPDPEHAKCDGPSALPLAKLEPFLKQMKAIDDLVKGFEELDTSK [P0A715]”, for which the “total protein half-life in vivo” value under setting [1] was 6.1 ± 0.77 h; the “total protein half-life in vivo” value under setting [2] was 5.88 ± 1.5 h; the “total protein half-life in vivo” value under setting [3] came out at 5.22 ± 0.14 h; the “total protein half-life in vivo” value under setting [4] turned out to be 6.19 ± 0.93 h; the “total protein half-life in vivo” value under setting [5] was found to be 4.85 ± 0.15 h; the “total protein half-life in vivo” value under setting [6] was 3.15 ± 0.56 h. Moreover, the “total protein half-life in vivo” value reads like this: under setting [7], 6.05 ± 0.51 h; under setting [8], 10.3 ± 1.2 h; under setting [9], 5.01 ± 0.13 h; under setting [10], 9.03 ± 0.37 h; under setting [11], 5.58 ± 0.48 h; under setting [12], 12.9 ± 1.5 h.
On to “MSEQETRGANEAIDFNDELRNRREKLAALRQQGVAFPNDFRRDHTSDQLHEEFDAKDNQELESLNIEVSVAGRMMTRRIMGKASFVTLQDVGGRIQLYVARDSLPEGVYNDQFKKWDLGDIIGARGTLFKTQTGELSIHCTELRLLTKALRPLPDKFHGLQDQEVRYRQRYLDLIANDKSRQTFVVRSKILAAIRQFMVARGFMEVETPMMQVIPGGASARPFITHHNALDLDMYLRIAPELYLKRLVVGGFERVFEINRNFRNEGISVRHNPEFTMMELYMAYADYHDLIELTESLFRTLAQEVLGTTKVTYGEHVFDFGKPFEKLTMREAIKKYRPETDMADLDNFDAAKALAESIGITVEKSWGLGRIVTEIFDEVAEAHLIQPTFITEYPAEVSPLARRNDVNPEITDRFEFFIGGREIGNGFSELNDAEDQAERFQEQVNAKAAGDDEAMFYDEDYVTALEYGLPPTAGLGIGIDRMIMLFTNSHTIRDVILFPAMRPQK [P0A8N5]”, for which the “total protein half-life in vivo” value was determined as 5.8 ± 0.78 h under setting [1]; 5.16 ± 0.085 h under setting [2]; 4.88 ± 0.071 h under setting [3]; 5.06 ± 0.16 h under setting [4]; 4.87 ± 0.087 h under setting [5]; 3.05 ± 0.11 h under setting [6]. The “total protein half-life in vivo” value came to 5.71 ± 0.27 h under setting [7]; 9.948 ± 0.028 h under setting [8]; 4.74 ± 0.36 h under setting [9]; 7.77 ± 0.82 h under setting [10]; 5.55 ± 0.27 h under setting [11]; 11.2 ± 0.22 h under setting [12].
Take “MSFTRRKFVLGMGTVIFFTGSASSLLANTRQEKEVRYAMIHDESRCNGCNICARACRKTNHVPAQGSRLSIAHIPVTDNDNETQYHFFRQSCQHCEDAPCIDVCPTGASWRDEQGIVRVEKSQCIGCSYCIGACPYQVRYLNPVTKVADKCDFCAESRLAKGFPPICVSACPEHALIFGREDSPEIQAWLQQNKYYQYQLPGAGKPHLYRRFGQHLIKKENV”: the “total protein half-life in vivo” value runs as follows: under setting [1], 4.71 ± 0.073 h; under setting [12], 15.8 h.
On to “MMPEIGNGLLCLALGIALLLSVYPLWGVARGDARMMASSRLFAWLLFMSVAGAFLVLVNAFVVNDFTVTYVASNSNTQLPVWYRVAATWGAHEGSLLLWVLLMSGWTFAVAIFSQRIPLDIVARVLAIMGMVSVGFLLFILFTSNPFSRTLPNFPIEGRDLNPLLQDPGLIFHPPLLYMGYVGFSVAFAFAIASLLSGRLDSTYARFTRPWTLAAWIFLTLGIVLGSAWAYYELGWGGWWFWDPVENASFMPWLVGTALMHSLAVTEQRASFKAWTLLLAISAFSLCLLGTFLVRSGVLVSVHAFASDPARGMFILAFMVLVIGGSLLLFAARGHKVRSRVNNALWSRESLLLANNVLLVAAMLVVLLGTLLPLVHKQLGLGSISIGEPFFNTMFTWLMVPFALLLGVGPLVRWGRDRPRKIRNLLIIAFISTLVLSLLLPWLFESKVVAMTVLGLAMACWIAVLAIAEAALRISRGTKTTFSYWGMVAAHLGLAVTIVGIAFSQNYSVERDVRMKSGDSVDIHEYRFTFRDVKEVTGPNWRGGVATIGVTRDGKPETVLYAEKRYYNTAGSMMTEAAIDGGITRDLYAALGEELENGAWAVRLYYKPFVRWIWAGGLMMALGGLLCLFDPRYRKRVSPQKTAPEAV”, for which the “total protein half-life in vivo” value is 6.56 h under setting [4]; 4.59 h under setting [5]; above 8 h under setting [7]; above 16 h under setting [8]; 6.24 h under setting [11]; 9.96 h under setting [12].
Consider “MKVIIVEDEFLAQQELSWLIKEHSQMEIVGTFDDGLDVLKFLQHNRVDAIFLDINIPSLDGVLLAQNISQFAHKPFIVFITAWKEHAVEAFELEAFDYILKPYQESRITGMLQKLEAAWQQQQTSSTPAATVTRENDTINLVKDERIIVTPINDIYYAEAHEKMTFVYTRRESYVMPMNITEFCSKLPPSHFFRCHRSFCVNLNKIREIEPWFNNTYILRLKDLDFEVPVSRSKVKEFRQLMHL [P0AE39]”, for which the “total protein half-life in vivo” value was found to be 5.23 ± 0.21 h under setting [1]; 4.51 ± 0.32 h under setting [2]; 4.019 ± 0.0042 h under setting [3]; 4.73 ± 0.72 h under setting [4]; 4.01 ± 0.061 h under setting [5]; 2.8 ± 0.42 h under setting [6]. In addition, the “total protein half-life in vivo” value came to 6 ± 0.71 h under setting [7]; 8.85 ± 0.64 h under setting [8]; 4.44 ± 0.42 h under setting [9]; 7.31 ± 0.66 h under setting [10]; 4.93 ± 0.72 h under setting [11]; 9.66 ± 0.46 h under setting [12].
In the case of “MEFTTGLMSLDTALNEMLSRVTPLTAQETLPLVQCFGRILASDVVSPLDVPGFDNSAMDGYAVRLADIASGQPLPVAGKSFAGQPYHGEWPAGTCIRIMTGAPVPEGCEAVVMQEQTEQMDNGVRFTAEVRSGQNIRRRGEDISAGAVVFPAGTRLTTAELPVIASLGIAEVPVIRKVRVALFSTGDELQLPGQPLGDGQIYDTNRLAVHLMLEQLGCEVINLGIIRDDPHALRAAFIEADSQADVVISSGGVSVGEADYTKTILEELGEIAFWKLAIKPGKPFAFGKLSNSWFCGLPGNPVSATLTFYQLVQPLLAKLSGNTASGLPARQRVRTASRLKKTPGRLDFQRGVLQRNADGELEVTTTGHQGSHIFSSFSLGNCFIVLERDRGNVEVGEWVEVEPFNALFGGL”, the “total protein half-life in vivo” value reads like this: under setting [3], 4.41 ± 0.22 h; under setting [4], 4.63 ± 0.21 h; under setting [5], 4.88 ± 0.29 h; under setting [6], 2.741 ± 0.013 h; under setting [7], 4.96 ± 0.85 h; under setting [8], 11.1 ± 0.4 h. Moreover, the “total protein half-life in vivo” value is 4.07 ± 0.22 h under setting [9], 7.4293 ± 0.003 h under setting [10], 5.64 ± 0.34 h under setting [11] and 11.1 ± 1.6 h under setting [12].

The values above are taken from the supplement of paper PMC11246515.
